A short description of this series: self-splicing fitness, log relative to wild type (ln ratio); higher = more splicing; Tetrahymena group I intron in knt gene, E. coli kanamycin selection, DiMSum; sequences stand for … in CUCUCU…GGAGGGAAAAGUUAUCAGGCAUGCACCUGGUAGCUAGUCUUUAAACCAAUAGAUUGCAUCGGUUUAAAAGGCAAGACCGUCAAAUUGCGGGAAAGGGGUCAACAGCCGUUCAGUACCAAGUCUCAGGGGAAACUUUGAGAUGGCCUUGCAAAGGGUAUGGUAAUAAGCUGACGGACAUGGUCCUAACCACGCAGCCAAGUCCUAAGUCAACAGAUCUUCUGUUGAUAUGGAUGCAGUUCACAGACUAAAUGUCGGUCGGGGAAGAUGUAUUCUUCUCAUAAGAUAUAGUCGGACCUCUCCUUAAUGGGAGCUAGCGGAUGAAGUGAUGCAACACUGGAGCCGCUGGGAACUAAUUUGUAUGCGAAAGUAUAUUGAUUAGUUUUGGAGUACUCGUGGUCG
The procedure, abridged:
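Colonies from six replicate transformations of E. coli BL21(DE3) were pooled and amplicon-sequenced on an Illumina HiSeq 2500. The library placed an intron with all eight P1ex-region nucleotides randomised inside the knt kanamycin-resistance gene on pET-22b(+), and cells grew overnight at 37°C or 30°C on LB agar with or without 25 μg/mL kanamycin (plus 100 μg/mL carbenicillin, 50 μM IPTG, 0.2% rhamnose). Fitness is the DiMSum error-weighted combination of wild-type-normalised replicate fold changes, kanamycin versus none.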

The values below come from the supplement of paper PMC7877785.

± gives the uncertainty stated by the source.

Regarding CUUGAGCAAUAUUACGCCAU, the “self-splicing fitness (ln)” value runs as follows: (30 °C) -2.92 ± 0.22; (37 °C) -3.8 ± 0.46.
Take GCUAAGCAAUAUUACGGUAA: the “self-splicing fitness (ln)” value is, setting by setting: (30 °C) -1.65 ± 0.17; (37 °C) -1.04 ± 0.16.
On the same counts, the results for AGAUAGCAAUAUUACGUCUA are -0.934 ± 0.24 and -0.474 ± 0.2.
The corresponding values for UCUUAGCAAUAUUACGGCAG are -3.36 ± 0.26 and -2.23 ± 0.3.
Regarding GUAAAGCAAUAUUACGACCC, the “self-splicing fitness (ln)” value reads like this: (30 °C) -1.28 ± 0.32; (37 °C) -0.886 ± 0.41.
On the same counts, the results for GCCUAGCAAUAUUACGGUGU are -0.374 ± 0.054 and 0.0553 ± 0.064.
The corresponding values for UACAAGCAAUAUUACGUUAU are -3.39 ± 0.19 and -1.81 ± 0.1.
The corresponding values for AUAGAGCAAUAUUACGCCCU are -0.756 ± 0.19 and -0.622 ± 0.37.
Take UCGUAGCAAUAUUACGGCAG: the “self-splicing fitness (ln)” value reads like this: (30 °C) -2.75 ± 0.13; (37 °C) -2.07 ± 0.15.
On the same counts, the results for GCUGAGCAAUAUUACGGGUA are -1.3 ± 0.091 and -1.15 ± 0.1.
On the same counts, the results for AGUCAGCAAUAUUACGGCCC are -0.436 ± 0.12 and -0.0813 ± 0.18.
On to GAGAAGCAAUAUUACGGAAG, for which the “self-splicing fitness (ln)” value runs as follows: (30 °C) -3.57 ± 0.16; (37 °C) -2.39 ± 0.14.
As to GGCGAGCAAUAUUACGCAAC, the “self-splicing fitness (ln)” value by setting is: (30 °C) -0.841 ± 0.36; (37 °C) -0.673 ± 0.27.
Regarding GGUGAGCAAUAUUACGGAUC, the “self-splicing fitness (ln)” value is -0.748 ± 0.076 (30 °C) and 0.263 ± 0.11 (37 °C).
On the same counts, the results for UUAAAGCAAUAUUACGAAAA are -0.945 ± 0.057 and -0.761 ± 0.08.
On to CGACAGCAAUAUUACGUUCC, for which the “self-splicing fitness (ln)” value reads like this: (30 °C) -1.82 ± 0.11; (37 °C) -0.935 ± 0.14.
With CGUGAGCAAUAUUACGGACC, the “self-splicing fitness (ln)” value (30 °C) is -2.51 ± 0.49.
Consider AAUUAGCAAUAUUACGGCCC, for which the “self-splicing fitness (ln)” value is, setting by setting: (30 °C) -0.766 ± 0.18; (37 °C) -0.626 ± 0.29.
GCUUAGCAAUAUUACGCCGC: the “self-splicing fitness (ln)” value (30 °C) is -3.07 ± 0.5.
As to CCAGAGCAAUAUUACGUAGA, the “self-splicing fitness (ln)” value runs as follows: (30 °C) -1.88 ± 0.12; (37 °C) -2.08 ± 0.23.
The corresponding values for CGACAGCAAUAUUACGGGUU are -3.47 ± 0.12 and -2.01 ± 0.12.
On the same counts, the results for UGUGAGCAAUAUUACGCUAA are -2.39 ± 0.17 and -2.04 ± 0.23.
For UAGGAGCAAUAUUACGUUUG, the “self-splicing fitness (ln)” value (30 °C) was -3.19 ± 0.2 and the “self-splicing fitness (ln)” value (37 °C) is -1.25 ± 0.22.
Take UGCGAGCAAUAUUACGCUAU: where the note is “37 °C”, the “self-splicing fitness (ln)” value was -2.46 ± 0.38.
With GCGUAGCAAUAUUACGAUAU, the “self-splicing fitness (ln)” value (30 °C) is -0.111 ± 0.081 and the “self-splicing fitness (ln)” value (37 °C) is -0.357 ± 0.1.
With CAGAAGCAAUAUUACGUAUG, the “self-splicing fitness (ln)” value is -4.42 ± 0.16 (30 °C) and -2.56 ± 0.13 (37 °C).
For UGCGAGCAAUAUUACGGGUU, the “self-splicing fitness (ln)” value by setting is: (30 °C) -3.38 ± 0.16; (37 °C) -2.51 ± 0.16.
Take GAUGAGCAAUAUUACGUGGU: the “self-splicing fitness (ln)” value (30 °C) was -3.36 ± 0.37.
For GAGCAGCAAUAUUACGACGG, the “self-splicing fitness (ln)” value (30 °C) is -4.27 ± 0.26 and the “self-splicing fitness (ln)” value (37 °C) was -2.18 ± 0.17.
On the same counts, the results for GCAUAGCAAUAUUACGGAAC are -3.61 ± 0.29 and -3.46 ± 0.34.
As to CUGAAGCAAUAUUACGCCUC, the “self-splicing fitness (ln)” value (30 °C) was -3.61 ± 0.44.
CUGAAGCAAUAUUACGCGCA: the “self-splicing fitness (ln)” value by setting is: (30 °C) -3.11 ± 0.23; (37 °C) -2.19 ± 0.36.
The corresponding values for AUCGAGCAAUAUUACGGAGG are -1.89 ± 0.39 and -0.942 ± 0.25.
In the case of CGAUAGCAAUAUUACGGCGG, the “self-splicing fitness (ln)” value runs as follows: (30 °C) -0.197 ± 0.077; (37 °C) 0.211 ± 0.1.
On the same counts, the results for GUUUAGCAAUAUUACGAUGC are -0.832 ± 0.089 and 0.32 ± 0.12.
CUAUAGCAAUAUUACGGGCU: the “self-splicing fitness (ln)” value is -2.63 ± 0.19 (30 °C) and -3.38 ± 0.39 (37 °C).
On to CGCAAGCAAUAUUACGCGGA, for which the “self-splicing fitness (ln)” value reads like this: (30 °C) -2.93 ± 0.28; (37 °C) -2.41 ± 0.23.
Regarding GAGCAGCAAUAUUACGUCUC, the “self-splicing fitness (ln)” value by setting is: (30 °C) -2.48 ± 0.15; (37 °C) -2.23 ± 0.22.
The corresponding values for ACCAAGCAAUAUUACGCAUC are -3.18 ± 0.11 and -1.74 ± 0.11.
